Two variants from IntAct's records for PubMed 29769718 can be followed below.

The chains are these.
B1: Ankyrin repeat domain-containing protein 16 (Mus musculus), A2AS55-1 (parent)
chain: MALPGDPRRLCRLVQEGRLRDLQEELAVARGCRGPAGDTLLHCAARHGRQDILAYLVEAWSMDIEATNRDYKRPLHEAASMGHRDCVRYLLGRGAVVDSLKKADWTPLMMACTRKNLDVIQDLVEHGANPLLKNKDGWNSFHIASREGHPVILRYLLTVCPDAWKTESNIRRTPLHTAAMHGCLEAVQVLLERCHYEPDCRDNCGVTPFMDAIQCGHVSIAKLLLEQHKACSSAADSMGAQALHRAAVTGQDEAIRFLVCGLGIDVDVRAKSSQLTALHYAAKEGQTNTVQTLLSLGADINSTDERNRSVLHLACAGQHVACTRLLLQSGLKDSEDLTGTLAQQLTRSVDILQDFDHDVKS
B2: Alanine--tRNA ligase, cytoplasmic (Mus musculus), Q8BGQ7 (parent)
chain: MDATLTAREIRERFINFFRRNEHTYVHSSATIPLDDPTLLFANAGMNQFKPIFLNTIDPSHPMAKLSRAANTQKCIRAGGKHNDLDDVGKDVYHHTFFEMLGSWSFGDYFKELACKMALELLTQEFGIPVERLYVTYFGGDEAAGLEPDLECRQIWQNLGLDEARILPGNMKDNFWEMGDTGPCGPCSEIHYDRIGGRDAAHLVNQDDPNVLEIWNLVFIQYNRESDGVLKPLPKKSIDTGMGLERLVSVLQNKMSNYDTDLFMPYFEAIQKGTGARPYTGKVGAEDADGIDMAYRVLADHARTITVALADGGRPDNTGRGYVLRRILRRAVRYSHEKLNASRGFFATLVDVVVQSLGDAFPELKKDPEMVKDIINEEEVQFLKTLSRGRRILDRKIQSLGDCKTIPGDTAWLLYDTYGFPVDLTGLIAEEKGLVVDMNGFEEERRLAQLKSQGKGAGDEDLIMLDIYAIEELRAKGLEATDDSPKYNYQSDSSGSYVFECTVATVLALRREKMFVDEVVTGQECGVVLDKTCFYAEQGGQIYDEGYLVKVDDSSEDKTEFTVKNAQVRGGYVLHIGTIYGNLKVGDQVRLFIDEPRRRPVMSNHTATHILNFALRSVLGEADQKGSLVAPDRLRFDFTAKGAMSTQQIKKAEEIVNGMIEAAKPVYTQDCPLAAAKAIQGLRAVFDETYPDPVRVVSIGVPVSELLDDPCGPAGSLTSVEFCGGTHLRNSSHAGAFVIVTEEAIAKGIRRIVAVTGAEAQKALRKSETLKKSLSAMEAKVKAQTAPNKDVQREIADLGEALATAVIPQWQKDEQRETLKSLKKVMDDLDRASKADVQKRVLEKTKQLIDSNPNQPLVILEMESGASAKALNEALKLFKTHSPQTSAMLFTVDNEAGKITCLCQVPQNAANRGLKASEWVQQVSGLMDGKGGGKDMSAQATGKNVGCLQEALQLATSFAQLRLGDVKN

In the first assay the parent is B1. The conditions noted are these: with syac_mouse Aars1, Q8BGQ7.
As to K102R;K135R;K165R, the “effect of a mutation on the interaction” value was “disrupting interaction strength”.

The variants in another assay derive from B2. The conditions noted are these: with Ankrd16, A2AS55-1.
As to A734E, the “effect of a mutation on the interaction” value was “with no effect”.
